# Measurements reported in PMC9121323, “Using fluorescence anisotropy to monitor chaperone dispersal of RNA-binding protein condensates”.
# B1: Fluorescein-A19 RNA (ssRNA)
# RNA: AAAAAAAAAAAAAAAAAAA
# Molecular target: Pab1 monomer (poly(A)-binding protein) (Saccharomyces cerevisiae, UniProt P04147 1-577)
# Test: fluorescence anisotropy; monomer calibration, titration regime; Kd cannot be determined; 1x disaggregation buffer (composition not in the material), 30 C, 15 uL samples, fluorescein ex/em 485/535 nm; 0.2 uM A19 RNA used for gain setting
# Conditions: protein: recombinant; tags: 8xHis-TEV site tag, removed by TEV protease; label: 5' 6-FAM; single strand
# Chain of Pab1 monomer (poly(A)-binding protein) (P04147 whole entry): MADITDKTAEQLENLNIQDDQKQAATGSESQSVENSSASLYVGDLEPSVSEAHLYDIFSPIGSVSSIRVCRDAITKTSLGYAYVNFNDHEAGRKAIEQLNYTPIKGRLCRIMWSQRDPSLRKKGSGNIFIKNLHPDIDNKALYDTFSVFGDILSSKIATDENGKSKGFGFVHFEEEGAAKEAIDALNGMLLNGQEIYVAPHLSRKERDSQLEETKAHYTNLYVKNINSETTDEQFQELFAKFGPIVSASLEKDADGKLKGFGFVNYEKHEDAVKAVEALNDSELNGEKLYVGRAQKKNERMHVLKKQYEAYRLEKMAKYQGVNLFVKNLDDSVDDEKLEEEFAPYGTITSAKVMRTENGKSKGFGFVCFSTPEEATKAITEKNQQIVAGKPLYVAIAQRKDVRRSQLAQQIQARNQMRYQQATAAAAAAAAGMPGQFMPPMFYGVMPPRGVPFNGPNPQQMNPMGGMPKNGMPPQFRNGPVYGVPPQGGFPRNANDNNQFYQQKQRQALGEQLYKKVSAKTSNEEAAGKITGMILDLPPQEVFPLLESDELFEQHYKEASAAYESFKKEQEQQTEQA
binder,measurement,value
B1,binding result,binds
